The values below come from publication PMC4024747 (Nature Communications, 2014).

The target of assay [1] is T1, recombinant P. vivax SUB1 (Plasmodium vivax, PVX_097935 (Salvador …, UniProt E6Y8B9)).
T1 construct: also called PvSUB1
Description: western blot. Particulars: both partners purified. (A western blot detects proteins with antibodies after separation by electrophoresis.)

Assay [2] addresses rPfSUB1cat, recombinant Plasmodium falciparum SUB1 core catalytic domain (38 kDa) (Plasmodium falciparum, UniProt Q8I0V0). The assay is described as follows: western blot. Particulars: both partners purified.

T1 sequence (E6Y8B9 26-630): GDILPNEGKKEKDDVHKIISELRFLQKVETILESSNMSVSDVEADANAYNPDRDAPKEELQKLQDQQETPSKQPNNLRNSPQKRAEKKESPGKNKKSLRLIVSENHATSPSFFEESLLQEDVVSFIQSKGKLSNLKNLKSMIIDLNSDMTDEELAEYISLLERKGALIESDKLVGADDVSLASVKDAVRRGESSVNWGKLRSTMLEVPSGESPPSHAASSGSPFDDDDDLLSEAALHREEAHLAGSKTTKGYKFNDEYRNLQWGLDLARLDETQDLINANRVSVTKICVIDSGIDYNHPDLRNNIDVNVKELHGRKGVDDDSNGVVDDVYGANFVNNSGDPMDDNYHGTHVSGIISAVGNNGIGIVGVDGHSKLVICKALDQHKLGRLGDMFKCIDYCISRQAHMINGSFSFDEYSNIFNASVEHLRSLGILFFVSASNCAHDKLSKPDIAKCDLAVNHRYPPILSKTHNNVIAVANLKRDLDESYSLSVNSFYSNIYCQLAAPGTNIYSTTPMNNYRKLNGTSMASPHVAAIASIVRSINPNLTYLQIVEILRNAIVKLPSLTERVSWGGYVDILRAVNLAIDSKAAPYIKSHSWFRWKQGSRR
Sequence of rPfSUB1cat, recombinant Plasmodium falciparum SUB1 core catalytic domain (38 kDa) (Q8I0V0 333-668): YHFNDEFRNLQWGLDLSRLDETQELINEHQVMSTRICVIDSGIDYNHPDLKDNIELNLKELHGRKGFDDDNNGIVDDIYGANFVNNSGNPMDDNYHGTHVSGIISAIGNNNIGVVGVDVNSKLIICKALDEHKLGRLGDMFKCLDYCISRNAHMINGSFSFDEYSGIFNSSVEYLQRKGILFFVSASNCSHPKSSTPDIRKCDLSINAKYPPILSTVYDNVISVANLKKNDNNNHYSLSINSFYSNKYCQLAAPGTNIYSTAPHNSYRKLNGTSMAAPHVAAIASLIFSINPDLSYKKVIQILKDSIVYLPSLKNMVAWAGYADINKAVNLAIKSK

B1: mAb NIMP.M7, PfSUB1-specific monoclonal antibody (whole antibody) (antibody, V domains shown)
VH: QVQLQESGPDLVKPSSSLKLTCTTTGYSISSGYSWHWIRQEPGKSLEWMGYIHYSGSTDYNDSLKARITITRDTASNMFFLQLSSVTSDDTAVYYCVIYRYDGQWVFDDWGAGTTVTVSS
VL: DIVLTQSPATMSASLGQRVSMSCSASSSVSTSYFHWYQQKPGSSPKLWIYSTSNLASGVPGRFSGSGSGTSYSLSISSMEAEDAATYYCHQFHRSPLTFGAGTKLELK
With B1, the binding result in assay [1] and in assay [2] was “binds” throughout.
